Values of other authors as cited in paper PMC4739856.
Where “and” joins values, the source holds several entries; their conditions need not be identical. Equal entries are not always repeated. Where two headings read alike, the source gives them in different places.

Key:
His119 [1] = biological target: T1, His119 (UniProt position 145, PYVPVHFDASV); assay: NMR; details: apo (ligand-free) RNase A
His12 [2] = biological target: T2, His12 (UniProt position 38, KFERQHMDSST); assay: NMR; details: apo (ligand-free) RNase A
His119 [3] = biological target: T1, His119
His12 [4] = biological target: T2, His12

Substance: Ribonuclease A (RNase A, pancreatic ribonuclease) (Bos taurus)
- pKa (His119 [1]): 6.03 and 6.34
- pKa (His12 [2]): 5.87 and 6.18
- pKa (His119 [3]; apo (ligand-free) RNase A): 6.2
- pKa (His119 [3]; complex with 3'-CMP): 7.4
- pKa (His12 [4]; apo (ligand-free) RNase A): 5.8
- pKa (His12 [4]; complex with 3'-CMP): 8.0
